In publication PMC11331121:

Assays:
Assay in all cases: SPR
H3K14ac peptide = biological target: H3K14ac peptide
H4K5ac peptide = biological target: H4K5ac peptide
H3K9ac peptide = biological target: H3K9ac peptide
H4K8ac peptide = biological target: H4K8ac peptide

B1: triple Tudor domains (3TD) of Drosophila Eggless/SetDB1, wild type (domain or fragment)
chain: SDYVHEVPPPGEIVRPPIQLGETYYAVKNKAIASWVSIKVIEFTESTAINGNTMKSYKIRYLNTPYQMIKTVTAKHIAYFEPPPVRLTIGTRVIAYFDGTTLSRGKDKGVVQSAFYPGIIAEPLKQANRYRYLIFYDDGYTQYVPHRDVRLVCQASEKVWEDVHAASRDFIQKYVEKYSVDRPMVQCTRGQSMTTESNGTWLYARVIDIDCSLVLMQFEGDKNHTEWIYRGSLRLGPVFRETQNNMNSSSAQQLRVP
- Kd (H3K14ac peptide): 339 µM
- Kd (H4K5ac peptide): 925 µM
- Kd (H3K9ac peptide): 823 µM
- Kd (H4K8ac peptide): 654 µM
